Reference: the supplement of paper PMC11246515
± gives the standard deviation of the averaged measurements.

Assay: total protein half-life in vivo (active degradation + dilution); higher = more stable protein
[1] = E. coli NCM3722 delta-clpP delta-lon delta-hslV, growth: N-lim chemostat, doubling time 6 h
[2] = E. coli NCM3722 delta-clpP, growth: N-lim chemostat, doubling time 6 h
[3] = E. coli NCM3722 delta-hslV, growth: N-lim chemostat, doubling time 6 h
[4] = E. coli NCM3722 delta-lon, growth: N-lim chemostat, doubling time 6 h
[5] = E. coli NCM3722 delta-smpB, growth: N-lim chemostat, doubling time 6 h
[6] = wild type E. coli NCM3722, growth: C-lim chemostat, doubling time 3 h
[7] = wild type E. coli NCM3722, growth: C-lim chemostat, doubling time 6 h
[8] = wild type E. coli NCM3722, growth: C-lim chemostat, doubling time 12 h
[9] = wild type E. coli NCM3722, growth: N-lim chemostat, doubling time 6 h
[10] = wild type E. coli NCM3722, growth: N-lim chemostat, doubling time 12 h
[11] = wild type E. coli NCM3722, growth: P-lim chemostat, doubling time 6 h
[12] = wild type E. coli NCM3722, growth: P-lim chemostat, doubling time 12 h

Sequence	total protein half-life in vivo [1]	total protein half-life in vivo [2]	total protein half-life in vivo [3]	total protein half-life in vivo [4]	total protein half-life in vivo [5]	total protein half-life in vivo [6]	total protein half-life in vivo [7]	total protein half-life in vivo [8]	total protein half-life in vivo [9]	total protein half-life in vivo [10]	total protein half-life in vivo [11]	total protein half-life in vivo [12]
MQLTSFTDYGLRALIYMASLPEGRMTSISEVTDVYGVSRNHMVKIINQLSRAGYVTAVRGKNGGIRLGKPASAIRIGDVVRELEPLSLVNCSSEFCHITPACRLKQALSKAVQSFLTELDNYTLADLVEENQPLYKLLLVE [P0AF63]	7.13 ± 1.1 h	6.69 ± 0.15 h	5.44 ± 0.07 h	5.26 ± 0.19 h	5.26 ± 0.17 h	2.93 ± 0.15 h	6.31 ± 1.1 h	8.91 ± 0.3 h	5.12 ± 0.58 h	10.2 ± 0.44 h	4.03 ± 0.2 h	6.22 ± 0.65 h
MSDMAERLALHEFTENAYLNYSMYVIMDRALPFIGDGLKPVQRRIVYAMSELGLNASAKFKKSARTVGDVLGKYHPHGDSACYEAMVLMAQPFSYRYPLVDGQGNWGAPDDPKSFAAMRYTESRLSKYSELLLSELGQGTADWVPNFDGTLQEPKMLPARLPNILLNGTTGIAVGMATDIPPHNLREVAQAAIALIDQPKTTLDQLLDIVQGPDYPTEAEIITSRAEIRKIYENGRGSVRMRAVWKKEDGAVVISALPHQVSGARVLEQIAAQMRNKKLPMVDDLRDESDHENPTRLVIVPRSNRVDMDQVMNHLFATTDLEKSYRINLNMIGLDGRPAVKNLLEILSEWLVFRRDTVRRRLNYRLEKVLKRLHILEGLLVAFLNIDEVIEIIRNEDEPKPALMSRFGLTETQAEAILELKLRHLAKLEEMKIRGEQSELEKERDQLQGILASERKMNNLLKKELQADAQAYGDDRRSPLQEREEAKAMSEHDMLPSEPVTIVLSQMGWVRSAKGHDIDAPGLNYKAGDSFKAAVKGKSNQPVVFVDSTGRSYAIDPITLPSARGQGEPLTGKLTLPPGATVDHMLMESDDQKLLMASDAGYGFVCTFNDLVARNRAGKALITLPENAHVMPPVVIEDASDMLLAITQAGRMLMFPVSDLPQLSKGKGNKIINIPSAEAARGEDGLAQLYVLPPQSTLTIHVGKRKIKLRPEELQKVTGERGRRGTLMRGLQRIDRVEIDSPRRASSGDSEE [P0AFI2]	5.85 ± 0.14 h	6.82 ± 1.4 h	3.67 ± 0.47 h	3.93 ± 0.34 h	3.2 ± 0.17 h	2.44 ± 0.17 h	3.745 ± 0.031 h	5.99 ± 0.32 h	3.42 ± 0.22 h	5.17 ± 0.29 h	2.947 ± 0.025 h	5.43 ± 0.56 h
MKNIKFSLAWQILFAMVLGILLGSYLHYHSDSRDWLVVNLLSPAGDIFIHLIKMIVVPIVISTLVVGIAGVGDAKQLGRIGAKTIIYFEVITTVAIILGITLANVFQPGAGVDMSQLATVDISKYQSTTEAVQSSSHGIMGTILSLVPTNIVASMAKGEMLPIIFFSVLFGLGLSSLPATHREPLVTVFRSISETMFKVTHMVMRYAPVGVFALIAVTVANFGFSSLWPLAKLVLLVHFAILFFALVVLGIVARLCGLSVWILIRILKDELILAYSTASSESVLPRIIEKMEAYGAPVSITSFVVPTGYSFNLDGSTLYQSIAAIFIAQLYGIDLSIWQEIILVLTLMVTSKGIAGVPGVSFVVLLATLGSVGIPLEGLAFIAGVDRILDMARTALNVVGNALAVLVIAKWEHKFDRKKALAYEREVLGKFDKTADQ	–	2.63 h	–	–	–	2.87 h	4.95 h	> 16 h	–	–	–	6.24 h
MSFWKVAAAQYEPRKTSLTEQVAHHLEFVRAAARQQCQLLVFPSLSLLGCDYSRRALPAPPDLSLLDPLCYAATTWRMTIIAGLPVEYNDRFIRGIAVFAPWRKTPGIYHQSHGACLGRRSRTITVVDEQPQGMDMDPTCSLFTTGQCLGEPDLLASARRLQFFSHQYSIAVLMANARGNSALWDEYGRLIVRADRGSLLLVGQRSSQGWQGDIIPLR	5.47 h	–	–	–	–	–	–	–	–	–	–	–
MKIISKMLVGALALAVTNVYAAELMTKAEFEKVESQYEKIGDISTSNEMSTADAKEDLIKKADEKGADVLVLTSGQTDNKIHGTANIYKKK	5.25 ± 1.4 h	5.09 ± 0.88 h	5.83 ± 1 h	5.4 ± 0.39 h	4.12 ± 0.067 h	2.86 ± 0.34 h	4.78 ± 0.76 h	5.78 ± 0.63 h	5.28 ± 0.32 h	9.55 ± 3.1 h	4.64 ± 1.1 h	9.62 ± 0.2 h
MNLWQQNYDPAGNIWLSSLIASLPILFFFFALIKLKLKGYVAASWTVAIALAVALLFYKMPVANALASVVYGFFYGLWPIAWIIIAAVFVYKISVKTGQFDIIRSSILSITPDQRLQMLIVGFCFGAFLEGAAGFGAPVAITAALLVGLGFKPLYAAGLCLIVNTAPVAFGAMGIPILVAGQVTGIDSFEIGQMVGRQLPFMTIIVLFWIMAIMDGWRGIKETWPAVVVAGGSFAIAQYLSSNFIGPELPDIISSLVSLLCLTLFLKRWQPVRVFRFGDLGASQVDMTLAHTGYTAGQVLRAWTPFLFLTATVTLWSIPPFKALFASGGALYEWVINIPVPYLDKLVARMPPVVSEATAYAAVFKFDWFSATGTAILFAALLSIVWLKMKPSDAISTFGSTLKELALPIYSIGMVLAFAFISNYSGLSSTLALALAHTGHAFTFFSPFLGWLGVFLTGSDTSSNALFAALQATAAQQIGVSDLLLVAANTTGGVTGKMISPQSIAIACAAVGLVGKESDLFRFTVKHSLIFTCIVGVITTLQAYVLTWMIP	–	–	–	–	–	1.79 h	1.93 h	2.6 ± 0.12 h	–	–	–	–
MVLWQSDLRVSWRAQWLSLLIHGLVAAVILLMPWPLSYTPLWMVLLSLVVFDCVRSQRRINARQGEIRLLMDGRLRWQGQEWSIVKAPWMIKSGMMLRLRSDGGKRQHLWLAADSMDEAEWRDLRRILLQQETQR	6.03 ± 0.068 h	5.69 h	–	4.15 ± 0.083 h	–	3.47 h	5.64 ± 1.5 h	6.78 h	5.67 h	9.7 h	3.85 ± 0.56 h	7.57 h
MIIHFTLNGAPQELTVNPGENVQKLLFNMGMHSVRNSDDGFGFAGSDAIIFNGNIVNASLLIAAQLEKADIRTAESLGKWNELSLVQQAMVDVGVVQSGYNDPAAALIITDLLDRIAAPTREEIDDALSGLFSRDAGWQQYYQVIELAVARKNNPQATIDIAPTFRDDLEVIGKHYPKTDAAKMVQAKPCYVEDRVTADACVIKMLRSPHAHALITHLDVSKAEALPGVVHVITHLNCPDIYYTPGGQSAPEPSPLDRRMFGKKMRHVGDRVAAVVAESEEIALEALKLIDVEYEVLKPVMSIDEAMAEDAPVVHDEPVVYVAGAPDTLEDDNSHAAQRGEHMIINFPIGSRPRKNIAASIHGHIGDMDKGFADADVIIERTYNSTQAQQCPTETHICFTRMDGDRLVIHASTQVPWHLRRQVARLVGMKQHKVHVIKERVGGGFGSKQDILLEEVCAWATCVTGRPVLFRYTREEEFIANTSRHVAKVTVKLGAKKDGRLTAVKMDFRANTGPYGNHSLTVPCNGPALSLPLYPCDNVDFQVTTYYSNICPNGAYQGYGAPKGNFAITMALAELAEQLQIDQLEIIERNRVHEGQELKILGAIGEGKAPTSVPSAASCALEEILRQGREMIQWSSPKPQNGDWHIGRGVAIIMQKSGIPDIDQANCMIKLESDGTFIVHSGGADIGTGLDTVVTKLAAEVLHCPPQDVHVISGDTDHALFDKGAYASSGTCFSGNAARLAAENLREKILFHGAQMLGEPVADVQLATPGVVRGKKGEVSFGDIAHKGETGTGFGSLVGTGSYITPDFAFPYGANFAEVAVNTRTGEIRLDKFYALLDCGTPVNPELALGQIYGATLRAIGHSMSEEIIYDAEGHPLTRDLRSYGAPKIGDIPRDFRAVLVPSDDKVGPFGAKSISEIGVNGAAPAIATAIHDACGIWLREWHFTPEKILTALEKI	> 8 h	–	–	–	–	–	–	9.16 h	–	–	–	–
MNTVRSEKDSMGAIDVPADKLWGAQTQRSLEHFRISTEKMPTSLIHALALTKRAAAKVNEDLGLLSEEKASAIRQAADEVLAGQHDDEFPLAIWQTGSGTQSNMNMNEVLANRASELLGGVRGMERKVHPNDDVNKSQSSNDVFPTAMHVAALLALRKQLIPQLKTLTQTLNEKSRAFADIVKIGRTHLQDATPLTLGQEISGWVAMLEHNLKHIEYSLPHVAELALGGTAVGTGLNTHPEYARRVADELAVITCAPFVTAPNKFEALATCDALVQAHGALKGLAASLMKIANDVRWLASGPRCGIGEISIPENEPGSSIMPGKVNPTQCEALTMLCCQVMGNDVAINMGGASGNFELNVFRPMVIHNFLQSVRLLADGMESFNKHCAVGIEPNRERINQLLNESLMLVTALNTHIGYDKAAEIAKKAHKEGLTLKAAALALGYLSEAEFDSWVRPEQMVGSMKAGR	4.65 ± 0.1 h	4.64 ± 0.49 h	4.42 ± 0.081 h	4.69 ± 0.13 h	4.11 ± 0.091 h	3.18 ± 0.23 h	5.9 ± 0.12 h	9.94 ± 0.14 h	4.59 ± 0.14 h	7.19 ± 0.16 h	5.82 ± 0.21 h	12.6 ± 0.33 h
MWKRLLIVSAVSAAMSSMALAAPLTVGFSQVGSESGWRAAETNVAKSEAEKRGITLKIADGQQKQENQIKAVRSFVAQGVDAIFIAPVVATGWEPVLKEAKDAEIPVFLLDRSIDVKDKSLYMTTVTADNILEGKLIGDWLVKEVNGKPCNVVELQGTVGASVAIDRKKGFAEAIKNAPNIKIIRSQSGDFTRSKGKEVMESFIKAENNGKNICMVYAHNDDMVIGAIQAIKEAGLKPGKDILTGSIDGVPDIYKAMMDGEANASVELTPNMAGPAFDALEKYKKDGTMPEKLTLTKSTLYLPDTAKEELEKKKNMGY	5.47 ± 0.2 h	5.64 ± 0.063 h	6.128 ± 0.015 h	5.93 ± 0.48 h	5.06 ± 0.13 h	3.09 ± 0.11 h	6.11 ± 0.068 h	12 ± 1.7 h	5.68 ± 1.1 h	11.9 ± 1.6 h	5.4 ± 0.41 h	13.35 ± 0.018 h
MATTTAECLTQETMDYHALNAMLNLYDSAGRIQFDKDRQAVDAFIATHVRPNSVTFSSQQQRLNWLVNEGYYDESVLNRYSRDFVITLFTHAHTSGFRFQTFLGAWKFYTSYTLKTFDGKRYLEDFADRVTMVALTLAQGDETLALQLTDEMLSGRFQPATPTFLNCGKQQRGELVSCFLLRIEDNMESIGRAVNSALQLSKRGGGVAFLLSNLREAGAPIKRIENQSSGVIPVMKMLEDAFSYANQLGARQGAGAVYLHAHHPDILRFLDTKRENADEKIRIKTLSLGVVIPDITFHLAKENAQMALFSPYDVERVYGKPFADVAISQHYDELVADERIRKKYLNARDFFQRLAEIQFESGYPYIMYEDTVNRANPIAGRINMSNLCSEILQVNSASEYDENLDYTRTGHDISCNLGSLNIAHTMDSPDFARTVETAVRGLTAVSDMSHIRSVPSIEAGNAASHAIGLGQMNLHGYLAREGIAYGSPEALDFTNLYFYAITWHALRTSMLLARERGETFAGFKQSRYASGEYFSQYLQGNWQPKTAKVGELFTRSGITLPTREMWAQLRDDVMRYGIYNQNLQAVPPTGSISYINHATSSIHPIVAKVEIRKEGKTGRVYYPAPFMTNENLALYQDAYEIGAEKIIDTYAEATRHVDQGLSLTLFFPDTATTRDINKAQIYAWRKGIKTLYYIRLRQMALEGTEIEGCVSCAL	4.76 ± 0.29 h	4.61 ± 2.7 h	–	–	–	–	2.61 ± 0.17 h	2.88 ± 1.4 h	–	–	–	–
MNNTPRYPQRVRNDLRFRELTVLRVERISAGFQRIVLGGEALDGFTSRGFDDHSKLFFPQPDAHFVPPTVTEEGIVWPEGPRPPSRDYTPLYDELRHELAIDFFIHDGGVASGWAMQAQPGDKLTVAGPRGSLVVPEDYAYQLYVCDESGMPALRRRLETLSKLAVKPQVSALVSVRDNACQDYLAHLDGFNIEWLAHDEQAVDARLAQMQIPADDYFIWITGEGKVVKNLSRRFEAEQYDPQRVRAAAYWHAK	4.98 ± 0.54 h	3.77 ± 0.45 h	4.7 ± 0.13 h	5.34 ± 0.58 h	4.11 ± 1.2 h	3.36 ± 0.12 h	6.21 ± 1.1 h	9.46 ± 0.69 h	4.38 ± 0.69 h	7.07 h	5.663 ± 0.053 h	12.1 ± 0.45 h
MKLRDSLAENKSIRLQAEAETWQEAVKIGVDLLVAADVVEPRYYQAILDGVEQFGPYFVIAPGLAMPHGRPEEGVKKTGFSLVTLKKPLEFNHDDNDPVDILITMAAVDANTHQEVGIMQIVNLFEDEENFDRLRACRTEQEVLDLIDRTNAAA	–	–	–	–	3.07 h	3.32 ± 0.71 h	3.97 ± 0.22 h	7.31 h	3.02 h	–	4.94 ± 0.59 h	7.637 ± 0.049 h
